{
  "source": "paper PMC4307304",
  "about": "“The Oxidative Fermentation of Ethanol in Gluconacetobacter diazotrophicus Is a Two-Step Pathway Catalyzed by a Single Enzyme: Alcohol-Aldehyde Dehydrogenase (ADHa)” (International Journal of Molecular Sciences, 2015)",
  "proteins": {"B1": {"name": "ADHa (Gluconacetobacter diazotrophicus PA1 5) (protein)", "chain": "ESEFGATGEAIIHADDHPGDWLTYGRTYSEQRYSPLDQINRSNVGNLKLAWYYDLDTNRGQEGTPLIVDGVMYATTNWSKMKALDAATGKLLWAYDPRVPGNIADKGCCDTVNRGAAYWNGKVYFGTFDGRLIALDAKTGKLVWSVNTIPADAALGHQRSYTVDGAPRIAKGRVIIGNGGSEFGARGFVSAFDAETGKLDWRFYTVPNAQNKPDNAPSDAVLMSKAYPTWSPTGAWTTQGGGGTVWDSIVYDPVTDLVYLGVGNGSPWNYKFRSDGKGDNLFLGSIVALKPETGEYVWHFQETPMDQWDYTSVQQIMTLDLPINGQTRHVIVHAPKNGFFYIIDAKTGEFLSGKNYVYVNWASGLDPKTGRPIYNPDALYTLNGKEWYGIPGDLGGHNFAAMAFSPRTGLVYIPAQQVPFLYTSQVGGFKPHPDSWNLGLDMNKVGVTDSPEAKQAFIKDLKGWIVAWDPVKQQEAFRVDHKGPWNGGIVATGGDLLFQGLANGEFHAYDATNGADLFHFAAQSGIIAPPVTYMANGKQYVAVEVGWGGIYPFFLGGLARTSGWTVNHSRVIAFSLDGAAKLPPQNDKGFLPVKPPAQFDGKRTDNGYFEFQTFCAACHGDNAEAGGVLPDLRWSGAIRHQDAFYNVVGRGALTAYGMDRFDASMKPEQIEDIRQFLIKRSNDTYQREVDARKNVDGIPAQ", "notes": "native, purified from membranes with Triton X-100; heterodimer ~72 kDa (S-I) and ~44 kDa (S-II); with Alcohol dehydrogenase (quinone), cytochrome c subunit"}},
  "key": {"[1]": {"substrate": "CC=O", "assay": "oxygen consumption (Clark electrode), oxidase activity of purified ADHa coupled to ADH-deficient Ga. diazotrophicus membranes", "type": "biochemical, Gluconacetobacter diazotrophicus", "details": "quinone analogue Q1 or Q2 100 uM, pH 6.0 phosphate, 30 °C, Triton X-100, text b13 calls the acetaldehyde constants of both assays the same, although the table prints 3.7 × 10^−4 for the dehydrogenase", "excerpt": "oxygen consumption (Clark electrode), oxidase activity of purified ADHa coupled to ADH-deficient Ga. diazotrophicus membranes on ADHa"}, "[2]": {"substrate": "CCO", "assay": "purified protein", "details": "quinone analogue Q1 or Q2 100 uM, pH 6.0 phosphate, 30 °C, Triton X-100"}},
  "data": [
    {"protein": "B1", "values": [
      {"measurement": "Km", "setting": "[1]", "result": 1100, "unit": "µM"},
      {"measurement": "kcat/Km", "setting": "[1]", "result": "1e+08", "unit": "M⁻¹ s⁻¹"},
      {"measurement": "Km", "setting": "[2]", "result": 76, "unit": "µM"},
      {"measurement": "kcat/Km", "setting": "[2]", "result": "1.8e+09", "unit": "M⁻¹ s⁻¹"}
    ]}
  ]
}
